Results taken from patent US20180339041A1 (Kyowa Kirin, published 2018).
Where a chain is given by its changes, count along the chain named. Names and notes keep the numbering of the source.

T1: C-terminally FLAG-tagged human Gas6 recombinant protein (hGas6-F) (human, UniProt Q14393 31-678, gamma-carboxylated glutamic acid residues in the Gla domain (producer cells co-express rat VKOR and human GGCX); positions not given)
T1 construct: also called human Gas6-F; human Gas6 protein
T1 sequence: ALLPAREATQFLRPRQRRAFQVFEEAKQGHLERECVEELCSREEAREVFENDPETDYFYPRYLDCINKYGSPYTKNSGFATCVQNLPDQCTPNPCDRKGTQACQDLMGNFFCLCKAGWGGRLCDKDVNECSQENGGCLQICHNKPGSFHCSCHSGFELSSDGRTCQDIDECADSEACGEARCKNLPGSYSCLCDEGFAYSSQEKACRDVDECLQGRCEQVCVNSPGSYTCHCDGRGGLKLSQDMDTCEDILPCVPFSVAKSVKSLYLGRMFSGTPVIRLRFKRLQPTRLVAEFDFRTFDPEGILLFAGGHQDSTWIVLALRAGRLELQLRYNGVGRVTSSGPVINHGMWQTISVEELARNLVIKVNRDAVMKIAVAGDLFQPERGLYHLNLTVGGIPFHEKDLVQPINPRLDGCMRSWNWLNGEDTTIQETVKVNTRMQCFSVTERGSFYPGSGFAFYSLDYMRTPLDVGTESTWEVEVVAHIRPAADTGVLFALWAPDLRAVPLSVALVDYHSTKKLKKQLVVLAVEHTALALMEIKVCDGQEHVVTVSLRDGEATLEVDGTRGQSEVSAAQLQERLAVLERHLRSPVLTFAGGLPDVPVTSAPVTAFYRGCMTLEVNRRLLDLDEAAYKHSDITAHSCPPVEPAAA

B1: hzKM5320 LV5HV3a antibody (antibody, V domains shown)
VH: QVQLVQSGSELKKPGASVKVSCKASGYTFTNYGMNWVRQAPGQGLKWMGWINTETGEPTYSDDFKGRFVFSLDTSVSTAYLQISSLKAEDTATYFCAREDGYYGTLDYWGQGTTVTVSS
VL: DIVMTQSPDSLAVSLGERVTINCKASQSVSNDVAWYQQKPGQSPKVLIYYASNRYTGVPDRFSGSGSGTDFTFTISSVQAEDVAVYFCQQDYSSPWTFGQGTKLEIK
notes: Humanized; variant human IgG4 constant region (EU S228P, L235E, R409K), human kappa; also called A-21
B2: hzKM5320 LV2bHV8 antibody (antibody, V domains shown)
VH: B1 VH with V2I, S9P, V20I, R38K, S77T
VL: B1 VL with I2V, L15A, V46L, V78L, F87Y
notes: Humanized; variant human IgG4 constant region (EU S228P, L235E, R409K), human kappa; also called A-14
B3: hzKM5320 LV5HV1 antibody (antibody, V domains shown)
VH: B1 VH with T93V, F95Y
VL: B1 VL
notes: Humanized; variant human IgG4 constant region (EU S228P, L235E, R409K), human kappa; also called A-19
B4: hzKM5320 LV6HV0 antibody (antibody, V domains shown)
VH: B1 VH with K46E, T93V, F95Y
VL: B1 VL with L15A
notes: Humanized; variant human IgG4 constant region (EU S228P, L235E, R409K), human kappa; also called A-09
B5: hzKM5320 LV3HV0 antibody (antibody, V domains shown)
VH: B1 VH with K46E, T93V, F95Y
VL: B1 VL with I2V, V78L
notes: Humanized; variant human IgG4 constant region (EU S228P, L235E, R409K), human kappa; also called A-07
B6: hzKM5320 LV5HV3b antibody (antibody, V domains shown)
VH: B1 VH with V2I, V20I, K46E, T93V
VL: B1 VL
notes: Humanized; variant human IgG4 constant region (EU S228P, L235E, R409K), human kappa; also called A-22
B7: hzKM5320 LV2bHV0 antibody (antibody, V domains shown)
VH: B1 VH with K46E, T93V, F95Y
VL: B1 VL with I2V, L15A, V46L, V78L, F87Y
notes: Humanized; variant human IgG4 constant region (EU S228P, L235E, R409K), human kappa; also called A-06
B8: hzKM5320 LV1bHV8 antibody (antibody, V domains shown)
VH: B1 VH with V2I, S9P, V20I, R38K, S77T
VL: B1 VL with I2V, V46L, F73L, F87Y
notes: Humanized; variant human IgG4 constant region (EU S228P, L235E, R409K), human kappa; also called A-12
B9: hzKM5320 LV5HV3c antibody (antibody, V domains shown)
VH: B1 VH with S9P, R38K, T93V, F95Y
VL: B1 VL
notes: Humanized; variant human IgG4 constant region (EU S228P, L235E, R409K), human kappa; also called A-23
B10: hzKM5320 LV1aHV8 antibody (antibody, V domains shown)
VH: B1 VH with V2I, S9P, V20I, R38K, S77T
VL: B1 VL with I2V, V46L, F73L, V78L
notes: Humanized; variant human IgG4 constant region (EU S228P, L235E, R409K), human kappa; also called A-11
B11: hzKM5320 LV2aHV0 antibody (antibody, V domains shown)
VH: B1 VH with K46E, T93V, F95Y
VL: B1 VL with I2V, V46L, F73L
notes: Humanized; variant human IgG4 constant region (EU S228P, L235E, R409K), human kappa; also called A-05
B12: hzKM5320 LV2aHV8 antibody (antibody, V domains shown)
VH: B1 VH with V2I, S9P, V20I, R38K, S77T
VL: B1 VL with I2V, V46L, F73L
notes: Humanized; variant human IgG4 constant region (EU S228P, L235E, R409K), human kappa; also called A-13
B13: hzKM5320 LV1aHV0 antibody (antibody, V domains shown)
VH: B1 VH with K46E, T93V, F95Y
VL: B1 VL with I2V, V46L, F73L, V78L
notes: Humanized; variant human IgG4 constant region (EU S228P, L235E, R409K), human kappa; also called A-03
B14: hzKM5320 LV5HV6 antibody (antibody, V domains shown)
VH: B1 VH with S9P, V20I, R38K
VL: B1 VL
notes: Humanized; variant human IgG4 constant region (EU S228P, L235E, R409K), human kappa; also called A-25
B15: hzKM5320 LV0HV8 antibody (antibody, V domains shown)
VH: B1 VH with V2I, S9P, V20I, R38K, S77T
VL: B1 VL with I2V, V46L, F73L, V78L, F87Y
notes: Humanized; variant human IgG4 constant region (EU S228P, L235E, R409K), human kappa; also called A-10
B16: hzKM5320 LV5HV4 antibody (antibody, V domains shown)
VH: B1 VH with S9P
VL: B1 VL
notes: Humanized; variant human IgG4 constant region (EU S228P, L235E, R409K), human kappa; also called A-24

Each binder was assayed against T1, C-terminally FLAG-tagged human Gas6 … (assay: SPR Biacore T100, captured antibody, Gas6 analyte, first test).
Method: An anti-human IgG antibody was immobilized on a CM5 sensor chip (manufactured by GE Healthcare Japan Corp.) using Human Antibody Capture Kit (manufactured by GE Healthcare Japan Corp.) according to the attached manual. Each test antibody adjusted to 1 μg/mL was added for 10 seconds at a flow rate of 10 μL/min to flow cells. […] The measurement was performed by the […] method. The obtained sensorgram was analyzed using Bia Evaluation Software (manufactured by GE Healthcare Japan Corp.), and the kinetic constant of each antibody was calculated.

| Kd [nM] | koff [s⁻¹] | kon [M⁻¹ s⁻¹] | Binder |
| --- | --- | --- | --- |
| < 2.3 | 0.000177 | > 77100 | B1 |
| < 9.77 | 0.000791 | > 81000 | B2 |
| < 2.48 | 0.000184 | > 74100 | B3 |
| < 3.22 | 0.000216 | > 67200 | B4 |
| < 2.91 | 0.000209 | > 71900 | B5 |
| < 2.01 | 0.000153 | > 76300 | B6 |
| < 14.4 | 0.00104 | > 72600 | B7 |
| < 11 | 0.000856 | > 77900 | B8 |
| < 1.79 | 0.00014 | > 77900 | B9 |
| < 9.64 | 0.000694 | > 72000 | B10 |
| < 15.2 | 0.00105 | > 69100 | B11 |
| < 10.2 | 0.0008 | > 78600 | B12 |
| < 12.6 | 0.000829 | > 65700 | B13 |
| < 1.8 | 0.000147 | > 81700 | B14 |
| < 9.79 | 0.000714 | > 72900 | B15 |
| < 2.19 | 0.000173 | > 79200 | B16 |
